Test results from patent US20070066547.

How the values were obtained:
[1] = test system: HIV-1 Ba-L virus (gp120) (Human immunodeficiency virus 1 (Ba-L)); assay: cell_activity; settings: 2'-F pyrimidines (U, C)
[2] = test system: gp120 envelope glycoprotein, HIV-1 Ba-L (SU) (Human immunodeficiency virus 1 (Ba-L)); assay: competition; settings: 2'-F pyrimidines (U, C); at highest aptamer concentration, no CD4; 48d inhibited at nM with CD4; CG10 and sCD4 binding not inhibited
[3] = test system: HIV-1 Ba-L break-through clones after B4 selection (gp120) (Human immunodeficiency virus 1 (Ba-L)); assay: cell_activity; settings: 2'-F pyrimidines (U, C); 100 nM aptamer; all four break-through clones neutralised

Row | Sequence | activity (log10 IU/ml reduction) ([1]; 100 nM aptamer, PBMC TCID50) | binding signal (% inhibition of mAb 17b binding) [2] | activity (log10 IU/ml reduction) [3] | IC50 ([1]; neutralisation in human PBMC, about 5 log10 at 100 nM) [nM]
1 | AUGACGUACCCGCACAAGCCACCACAAGUCUUAAUCGCGCCACCCUUGC [B84] | > 4 |  |  | 
2 | GAGCGGUUAAGGGAGAUUUAGGCAGCAGCUUGGACAGUGUAUCGGCUGAG [B4] |  | 50 | > 4 | < 1
